According to patent US20110311550A1 (Scripps Research, published 2011):

Key:
[1] = molecular target: T1, HCV E1E2 complex, isolate H77 (genotype 1a) (hepatitis C virus genotype 1a, isolate …, UniProt P27958 192-383; P27958 384-746); test: ELISA, mAb with E1E2 (H77), then CD81-LEL plate
[2] = molecular target: T1, HCV E1E2 complex, isolate H77 (genotype …); test: apparent affinity: half-maximal binding, ELISA on lectin-captured E1E2
[3] = molecular target: HCV E1E2 complex, isolate HCV-1 (genotype 1a), vaccinia-expressed (hepatitis C virus genotype 1a, isolate …, UniProt P26664 192-383; P26664 384-746); test: as above
[4] = molecular target: T1, HCV E1E2 complex, isolate H77 (genotype …); test: Fab screen after panning on antibody-masked E1E2 (H77)
[5] = molecular target: T2, HCV E1E2 complex, isolate H77 (genotype 1a) (hepatitis C virus genotype 1a, isolate …, UniProt P27958 192-383; P27958 384-746); test: competition ELISA on lectin-captured H77 E1E2; competitor: Fab P5
T2 construct: also called E1E2 (H77); Folded E1E2

[6] = molecular target: T2, HCV E1E2 complex, isolate H77 (genotype …); test: competition ELISA on lectin-captured H77 E1E2; competitor: Fab P6
[7] = molecular target: T2, HCV E1E2 complex, isolate H77 (genotype …); test: competition ELISA on lectin-captured H77 E1E2; competitor: Fab Q1
[8] = molecular target: T2, HCV E1E2 complex, isolate H77 (genotype …); test: competition ELISA on lectin-captured H77 E1E2; competitor: Fab Q2
[9] = molecular target: T2, HCV E1E2 complex, isolate H77 (genotype …); test: competition ELISA on lectin-captured H77 E1E2; competitor: Fab R1
[10] = molecular target: T2, HCV E1E2 complex, isolate H77 (genotype …); test: competition ELISA on lectin-captured H77 E1E2; competitor: Fab S1
[11] = molecular target: T2, HCV E1E2 complex, isolate H77 (genotype …); test: competition ELISA on lectin-captured H77 E1E2; competitor: Fab T1
[12] = molecular target: T2, HCV E1E2 complex, isolate H77 (genotype …); test: competition ELISA on lectin-captured H77 E1E2; competitor: Fab U1
[13] = molecular target: T2, HCV E1E2 complex, isolate H77 (genotype …); test: competition ELISA on lectin-captured H77 E1E2; competitor: Fab V1

| Binder | IC50 [1] | EC50 [2] | EC50 [3] | binding result [4] | residual binding [5] | residual binding [6] | residual binding [7] | residual binding [8] | residual binding [9] | residual binding [10] | residual binding [11] | residual binding [12] | residual binding [13] |
| --- | --- | --- | --- | --- | --- | --- | --- | --- | --- | --- | --- | --- | --- |
| MAb AR3C (IgG1 from Fab H3) (antibody, V domains shown) VH: LEQSGAEVKKPGSSVKVSCETSGGTLDNYALNWVRQAPGQGLEWIGGVVPLFGTTRNAQKFQGRVTISDDKSTGTGHMELRSLRSEDTAVYYCVRSVTPRYCGGGFCYGEFDYWGQGTLVTVSS VL: ELTQSPATLSVSPGERATLSCRASQSVSSNLAWYQQKPGQAPRLLIYGASTRATGIPARFSGSGSGTEFTLTVSRLEPEDSAVYFCQQYYRSPLTFGGGTKVEIKR | 2 nM | 2.3 nM | 1.4 nM |  |  |  |  |  |  |  |  |  |  |
| MAb AR1A (IgG1 from Fab B2) (antibody, V domains shown, also called ARIA) VH: LEQSGAEVKKPGSSVKVSCRASGSPYSSYTITWVRQAPGQGLEWMGGIILMTGKANYAQKFQGRVTITADRATATAYMEMSSLTSDDTAIYYCARDPYVYAGDDVRSLSRWGQGTPVIVSS VL: not shown | 5.7 nM | 3.8 nM | 2.6 nM |  |  |  |  |  |  |  |  |  |  |
| Fab B7 (Fab, V domains shown) VH: VQLLEQSGAEVKKPGSSVKVSCRASGSPYSSYTITWVRQAPGQGLEWMGGIILMTGKANYAQKFQGRVTITADRATATAYMEMSSLTSDDTAIYYCARDPYVYAGDDVWSLSRWGQGTPVIVSS VL: not shown |  |  |  | binds |  |  |  |  |  |  |  |  |  |
| Fab L7 (Fab, V domains shown) VH: VQLLEQSGAEVKKPGSSVKVTCKVPGDTFRSYVITWVRQAPGQGLEWLGGILPFFGTTNLAQKFQGRVTLTADESTTTAYMELSSLRAEDTAVYYCAKAGDLAFGGVIAGGVPHLSHFDPWGQGTLVTVSS VL: ELTQSPGTLSLSPGERATLSCRASQSVPSSYLGWYQQKPGQAPRLLIYGASSRATGIPERFSGSGSGTDFTLTISRLEPEDFAVYYCQQYGSSLSFGQGTKVDLKR |  |  |  | binds |  |  |  |  |  |  |  |  |  |
| MAb AR1A (antibody, V domains shown, also called IgG1 of Fab B2) VH: LEQSGAEVKKPGSSVKVSCRASGSPYSSYTITWVRQAPGQGLEWMGGIILMTGKANYAQKFQGRVTITADRATATAYMEMSSLTSDDTAIYYCARDPYVYAGDDVRSLSRWGQGTPVIVSS VL: not shown |  |  |  |  | 87% | 82% | 79% | 78% | 100% | 69% | 80% | 55% | 58% |
| MAb AR1B (antibody, V domains shown, also called IgG1 of Fab D1) VH: LESGGGLVQPGGSLRLSCEASGYYFSSFAMSWVRQTPGKGLEWVSSIAGGTLGRTSYRDSVKGRFTISRDNSKNTVFLHMNNLRPEDTAVYYCAKDPLLFAGGPNWFDHWGQGTLVTVSS VL: not shown |  |  |  |  | 95% | 95% | 97% | 96% | 101% | 101% | 102% | 103% | 102% |
| MAb AR2A (antibody, V domains shown, also called IgG1 of Fab G) VH: LEQSGAEMKKPGASLKVSCKTSGYTFDDYGVTWVRQAPGQGLEWMGWISAYSGNTFYARKFQGRVTMTTDPSTRTAYMELRSLRSDDTAVYFCARDRGLAINGVVFPYFGLDVWGQGTTVTVSS VL: ELTQSPVSLPVTPGEPASISCRSSQSLLHSNGNHYLDWYLQKPGQSPQLLMYLGSNRASGVPDRFSGSGSGTDFTLKISRVEAEDVGVYYCMQGLQTPWTFGQGTKVEIKR |  |  |  |  | 73% | 76% | 75% | 72% | 75% | 79% | 93% | 132% | 79% |
| MAb AR3C (antibody, V domains shown, also called IgG1 of Fab H3) VH: LEQSGAEVKKPGSSVKVSCETSGGTLDNYALNWVRQAPGQGLEWIGGVVPLFGTTRNAQKFQGRVTISDDKSTGTGHMELRSLRSEDTAVYYCVRSVTPRYCGGGFCYGEFDYWGQGTLVTVSS VL: ELTQSPATLSVSPGERATLSCRASQSVSSNLAWYQQKPGQAPRLLIYGASTRATGIPARFSGSGSGTEFTLTVSRLEPEDSAVYFCQQYYRSPLTFGGGTKVEIKR |  |  |  |  | 117% | 103% | 97% | 75% | 163% | 149% | 105% |  | 82% |
